Experimental data reported in patent US20150216990A1 (TUFTS MEDICAL CENTER, published 2015).
The star is where a group is joined. Palmitoyl = CCCCCCCCCCCCCCCC(=O)*

Molecular target: T1, human PAR1 (thrombin receptor) on human platelets (human, UniProt P25116 42-425)
T1 sequence (looked up): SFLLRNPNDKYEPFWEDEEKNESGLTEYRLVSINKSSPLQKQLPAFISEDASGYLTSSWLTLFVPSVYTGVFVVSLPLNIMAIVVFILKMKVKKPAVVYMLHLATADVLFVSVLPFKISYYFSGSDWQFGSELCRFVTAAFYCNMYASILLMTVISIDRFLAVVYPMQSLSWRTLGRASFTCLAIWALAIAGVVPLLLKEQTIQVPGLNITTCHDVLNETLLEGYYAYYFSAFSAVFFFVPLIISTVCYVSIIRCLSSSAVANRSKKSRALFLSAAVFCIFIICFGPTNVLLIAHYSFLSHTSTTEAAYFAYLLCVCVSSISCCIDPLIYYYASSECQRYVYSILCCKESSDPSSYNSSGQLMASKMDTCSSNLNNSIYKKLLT
Assay: cell-based or functional assay

B1: PZ-128 (palmitate-KKSRALF-NH2) (peptide)
peptide: Palmitoyl-KKSRALF-NH2
modifications: also: acetate salt
- right shift of thrombin-induced aggregation of human platelets: 5 fold
